Molecular target: T1, PC5a (Mus musculus, UniProt Q04592)
T1 construct: expressed in transfected cells; host or cells: CHO-FD11 Tet-On cells, transient co-transfection with pBI-FGE-HA
T1 sequence (Q04592 117-915 isoform Q04592-2 limits assumed): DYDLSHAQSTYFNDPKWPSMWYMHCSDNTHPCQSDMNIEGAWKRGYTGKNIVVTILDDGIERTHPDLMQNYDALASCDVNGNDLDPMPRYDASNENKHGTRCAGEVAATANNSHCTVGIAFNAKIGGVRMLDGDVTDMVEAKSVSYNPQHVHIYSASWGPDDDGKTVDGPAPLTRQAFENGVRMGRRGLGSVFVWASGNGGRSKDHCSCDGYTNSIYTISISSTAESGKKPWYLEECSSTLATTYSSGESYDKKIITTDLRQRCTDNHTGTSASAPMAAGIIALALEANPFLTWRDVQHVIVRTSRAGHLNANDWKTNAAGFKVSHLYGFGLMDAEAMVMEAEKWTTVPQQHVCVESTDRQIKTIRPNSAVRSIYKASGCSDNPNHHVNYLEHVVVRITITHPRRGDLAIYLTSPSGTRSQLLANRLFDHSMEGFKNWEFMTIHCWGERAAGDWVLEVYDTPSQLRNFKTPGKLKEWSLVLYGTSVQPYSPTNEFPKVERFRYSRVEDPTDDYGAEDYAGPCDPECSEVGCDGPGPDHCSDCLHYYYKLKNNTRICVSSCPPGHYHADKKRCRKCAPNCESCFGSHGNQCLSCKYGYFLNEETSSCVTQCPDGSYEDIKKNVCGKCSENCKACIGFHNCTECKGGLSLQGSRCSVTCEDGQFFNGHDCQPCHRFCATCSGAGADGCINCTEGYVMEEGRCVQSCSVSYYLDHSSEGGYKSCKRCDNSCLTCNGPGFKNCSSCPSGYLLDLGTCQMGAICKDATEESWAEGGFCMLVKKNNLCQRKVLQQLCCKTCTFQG
Assay: FGE processing in CHO-FD11 Tet-On cells co-expressing PC5a
Type: cell-based, murine
Conditions: PC5a coexpression
From the text: The resulting constructs were verified by full-length sequencing of the coding region to exclude any PCR prone errors. Plasmids for expression of the PCs encoding human furin (Gene ID 5045), human PACE4 (=PCSK6, Gene ID 5046), murine […] (=Pcsk5, Gene ID 18552) and rat PC7 (=Pcsk7, Gene ID 29606) were kindly provided by Abdel-Majid Khatib (18). Note that the PC cDNAs were encoded as pIRES constructs coding also for enhanced green fluorescence protein (EGFP) such that EGFP expression levels serve as a measure of the expression levels of PCs.
3 μg of pSB-FGE-RGS-His6 vector was used for single transfections of HT1080, HeLa, HEK 293, BHK and CHO cells. Conditioned medium was collected after 24 h and centrifuged (500×g, 5 min) Cells were washed once with PBS, treated with trypsin (Lonza) and pelleted by 250×g to remove the medium. Cell pellets were resuspended in PBS (pH 7.4) containing protease inhibitor (PI) cocktail (Sigma) and lysed by sonication 3×10 s on ice. For co-expression of FGE with one of the PCs in CHO-FD11 Tet-On cells 2 μg of pBI-FGE-HA and 2 μg of the plasmids encoding PCs (see above) were used for transient transfection. In case of transient transfections using pBI-vector constructs the protein expression was induced by replenishing the medium with medium containing 2 μg/mL doxycycline (BD Biosciences) at 5 h post-transfection. […]

B1: FGE: human wild type full length formylglycine generating enzyme with RYSR furin cleavage motif, SEQ ID NO:2 (protein)
chain: ADEFSQEAGTGAGAGSLAGSCGCGTPQRPGAHGSSAAAHRYSREANAPGPVPGERQLAHSKMVPIPAGVFTMGTDDPQIKQDGEAPARRVTIDAFYMDAYEVSNTEFEKFVNSTGYLTEAEKFGDSFVFEGMLSEQVKTNIQQAVAAAPWWLPVKGANWRHPEGPDSTILHRPDHPVLHVSWNDAVAYCTWAGKRLPTEAEWEYSCRGGLHNRLFPWGNKLQPKGQHYANIWQGEFPVTNTGEDGFQGTAPVDAFPPNGYGLYNIVGNAWEWTSDWWTVHHSVEETLNPKGPPSGKDRVKKGGSYMCHRSYCYRYRCAARSQNTPDSSASNLGFRCAADRLPTMDSGRGSHHHHHHH
modifications: cloned matured acitve full length FGE with 6x His tag on C-terminus
- processing of FGE: low efficiency

— patent publication US20150141617A1, “PRODUCTION AND PURIFICATION OF ACTIVE EUKARYOTIC FORMYLGLYCINEGENERATING ENZYME (FGE) VARIANTS” (Universität Bielefeld, priority 2013, published 2015)
